Measured values as given in the supplement of paper PMC10567573.

B1: SLC35F2 (parent)
chain: FVAFALCMFCLYSFMPLVIKVTSA

Variants of: B1
Assay: protein stability index of a GFP-peptide fusion (GPS, HEK-293T) (PSI 1-6); higher = more stable
Settings: c terminus: a fixed tail appended
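Note: lentivirally expressed fusions sorted by FACS into six bins by GFP to DsRed ratio, PSI derived from sequencing read proportions per bin multiplied by bin number.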

Variant	protein stability index
FVAFALCSFCLYSFMPLVIKVTSA	3.3
FVAFALCYFCLYSFMPLVIKVTSA	3.31
FVAFALCQFCLYSFMPLVIKVTSA	2.57
FVAFALCNFCLYSFMPLVIKVTSA	3.69
FVAFALCWFCLYSFMPLVIKVTSA	3.65
FVAFALCPFCLYSFMPLVIKVTSA	2.4
FVAFALCRFCLYSFMPLVIKVTSA	3.49
FVAFALCVFCLYSFMPLVIKVTSA	3.38
FVAFALCTFCLYSFMPLVIKVTSA	2.72
FVAFALCMFCLYSFMPLHIKVTSA	2.9
FVAFALCMFCLYSFMPLEIKVTSA	2.87
FVAFALCMFCLYSFMPLGIKVTSA	3.68
FVAFALCMFCLYSFMPLFIKVTSA	2.85
FVAFALCMFCLYSFMPLMIKVTSA	2.51
FVAFALCMFCLYSFMPLLIKVTSA	2.65
FVAFALCMFCLYSFMPLNIKVTSA	3.17
FVAFALCMFCLYSFMPLCIKVTSA	3.04
FVAFALCMFCLYSFMPLPIKVTSA	3.36
FVAFALCMFCLYSFMPLAIKVTSA	2.91
FVAFALCMFCLYSFMPLDIKVTSA	3.27
FVAFALCMFCLYSFMPLIIKVTSA	2.35
FVAFALCMFCLYSFMPLKIKVTSA	2.63
FVAFALCMFCLYSFMPLQIKVTSA	4.26
FVAFALCMECLYSFMPLVIKVTSA	3.49

Variant	protein stability index
FVAFALCMLCLYSFMPLVIKVTSA	2.07
FVAFALCMQCLYSFMPLVIKVTSA	2.59
FVAFALCMSCLYSFMPLVIKVTSA	2.61
FVAFALCMYCLYSFMPLVIKVTSA	2.79
FVAFALCMDCLYSFMPLVIKVTSA	3.1
FVAFALCMVCLYSFMPLVIKVTSA	2.56
FVAFALCMRCLYSFMPLVIKVTSA	3.23
FVAFALCMNCLYSFMPLVIKVTSA	2.31
FVAFALCMWCLYSFMPLVIKVTSA	2.68
FVAFALCMMCLYSFMPLVIKVTSA	3.23
FVAFALCMPCLYSFMPLVIKVTSA	2.44
FVAFALCMGCLYSFMPLVIKVTSA	1.76
FVAFALCMCCLYSFMPLVIKVTSA	2.94
FVAFALCMKCLYSFMPLVIKVTSA	3.39
FVAFALCMACLYSFMPLVIKVTSA	2.62
FVAFALCMFCLYSFMSLVIKVTSA	3.48
FVAFALCMFCLYSFMHLVIKVTSA	3.01
FVAFALCMFCLYSFMVLVIKVTSA	1.69
FVAFALCMFCLYSFMALVIKVTSA	3.6
FVAFALCMFCLYSFMDLVIKVTSA	2.99
FVAFALCMFCLYSFMLLVIKVTSA	2.86
FVAFALCMFCLYSFMMLVIKVTSA	1.92
FVAFALCMFCLYSFMFLVIKVTSA	2.59
FVAFALCMFCLYSFMGLVIKVTSA	2.85

Variant	protein stability index
FVAFALCMFCLYSFMKLVIKVTSA	2.06
FVAFALCMFCLYSFMELVIKVTSA	1.85
FVAFALCMFCLYSFMCLVIKVTSA	3.1
FVAFALCMFCLYSFMILVIKVTSA	2.99
FVAFALCMFCLYSFMQLVIKVTSA	2.65
FVAFALCMFCLYSFMTLVIKVTSA	2.05
FVAFALCMFCLYSFMYLVIKVTSA	4.47
FVAFALCMFCLYSFMRLVIKVTSA	2.79
FVAFALCMFCLYSFMWLVIKVTSA	2.66
FVAFALCMFCLYSFMNLVIKVTSA	3.51
FVAFALCMFCLYGFMPLVIKVTSA	3.42
FVAFALCMFCLYNFMPLVIKVTSA	3.33
FVAFALCMFCLYTFMPLVIKVTSA	2.97
FVAFALCMFCLYHFMPLVIKVTSA	3.26
FVAFALCMFCLYEFMPLVIKVTSA	3.17
FVAFALCMFCLYMFMPLVIKVTSA	2.54
FVAFALCMFCLYAFMPLVIKVTSA	2.08
FVAFALCMFCLYFFMPLVIKVTSA	2.8
FVAFALCMFCLYCFMPLVIKVTSA	2.62
FVAFALCMFCLYKFMPLVIKVTSA	3.34
FVAFALCMFCLYPFMPLVIKVTSA	2.15
FVAFALCMFCLYDFMPLVIKVTSA	4.24
FVAFALCMFCLYIFMPLVIKVTSA	3.95
FVAFALCMFCLYLFMPLVIKVTSA	3.22

Variant	protein stability index
FVAFALCMFCLYRFMPLVIKVTSA	3.03
FVAFALCMFCLYVFMPLVIKVTSA	3.39
FVAFALCMFCLYQFMPLVIKVTSA	2.36
FVAFALCMFCLYWFMPLVIKVTSA	2.54
FVAFALCMFCLYYFMPLVIKVTSA	2.33
FVAFALCMFCLYSFMPVVIKVTSA	3.13
FVAFALCMFCLYSFMPYVIKVTSA	3.6
FVAFALCMFCLYSFMPHVIKVTSA	2.77
FVAFALCMFCLYSFMPQVIKVTSA	3.99
FVAFALCMFCLYSFMPDVIKVTSA	2.8
FVAFALCMFCLYSFMPAVIKVTSA	2.46
FVAFALCMFCLYSFMPTVIKVTSA	2.34
FVAFALCMFCLYSFMPIVIKVTSA	2.03
FVAFALCMFCLYSFMPGVIKVTSA	2.43
FVAFALCMFCLYSFMPCVIKVTSA	1.91
FVAFALCMFCLYSFMPPVIKVTSA	2.71
FVAFALCMFCLYSFMPFVIKVTSA	2.35
FVAFALCMFCLYSFMPKVIKVTSA	4.14
FVAFALCMFCLYSFMPWVIKVTSA	2.18
FVAFALCMFCLYSFMPEVIKVTSA	2.38
FVAFALCMFCLYSFMPRVIKVTSA	2.36
FVAFALCMFCLYSFMPMVIKVTSA	3.65
